Data on 14 molecules can be found in patent US20210230273A1 (Alexion, published 2021).

To fix the notation:
T1: cell surface CD200 (human, UniProt P41217 31-278)
T1 construct: whole, on cells; also called CD200 on CD200 expressing Raji cells; CD200+ Raji cells
T1 sequence (looked up): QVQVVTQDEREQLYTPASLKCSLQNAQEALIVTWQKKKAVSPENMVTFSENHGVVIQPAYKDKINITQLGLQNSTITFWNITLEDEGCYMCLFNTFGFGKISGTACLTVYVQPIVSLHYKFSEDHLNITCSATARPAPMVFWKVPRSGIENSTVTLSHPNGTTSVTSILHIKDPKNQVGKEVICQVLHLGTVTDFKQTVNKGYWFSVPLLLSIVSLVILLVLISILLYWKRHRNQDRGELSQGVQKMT

B1: TPP-101 (Fab, V domains shown)
VH: QVQLQQSGSELKKPGASVKISCKASGYSFTDYIILWVRQNPGKGLEWIGHIDPYYGSSNYNLKFKGRVTITADQSTTTAYMELSSLRSEDTAVYYCGRSKRDYFDYWGQGTTLTVSS
VL: DIQMTQSPSSLSASIGDRVTITCKASQDINSYLSWFQQKPGKAPKLLIYRANRLVDGVPSRFSGSGSGTDYTLTISSLQPEDFAVYYCLQYDEFPYTFGGGTKLEIK
B2: TPP-709 (Fab, V domains shown)
VH: QVQLVQSGAEVKKPGASVKVSCKASGYSFTDYIILWVRQAPGQRLEWMGHIDPYYGSSNYNLKFKGRVTITRDTSASTAYMELSSLRSEDTAVYYCGRSKRDYFDYWGQGTLVTVSS
VL: DIQMTQSPSSLSASVGDRVTITCKASQDINSYLSWFQQKPGKAPKSLIYRANRLVDGVPSRFSGSGSGTDFTLTISSLQPEDFGTYYCLQYDEFPYTFGQGTKLEIK
B3: TPP-751 (Fab, V domains shown)
VH: QVQLVQSGAEVKKPGASVKVSCKASGYSFTDYIILWVRQAPGQRLEWMGHIDPYYGSSNYNLKFKGRVTITRDTSASTAYMELSSLRSEDTAVYYCGRSKRDYFDYWGQGTLVTVSS
VL: DIQMTQSPSSLSASVGDRVTITCKASQDINSYLSWFQQKPGKAPKSLIYRANRLVDGVPSRFSGSGSGTDFTLTISSLQPEDFATYYCLQYDEFPYTFGQGTKLEIK
B4: TPP-741 (Fab, V domains shown)
VH: QVQLVQSGAEVKKPGASVKVSCKASGYSFTDYIILWVRQAPGQRLEWIGHIDPYYGSSNYNLKFKGRVTITRDTSASTAYMELSSLRSEDTAVYYCARSKRDYFDYWGQGTLVTVSS
VL: DIQMTQSPSSLSASVGDRVTITCKASQDINSYLSWFQQKPGKAPKSLIYRANRLVDGVPSRFSGSGSGTDFTLTISSLQPEDFATYYCLQYDEFPYTFGQGTKLEIK
B5: TPP-100 (Fab, V domains shown)
VH: EVQLQQSGPELVKPGASLKMSCKASGYSFTDYIILWVKQNHGKSLEWIGHIDPYYGSSNYNLKFKGKATLTVDKSSSTAYMQLNSLTSEDSAVYYCGRSKRDYFDYWGQGTTLTVSS
VL: DIQMTQSPSSMYASLGERVTITCKASQDINSYLSWFQQKPGKSPKTLIYRANRLVDGVPSRFSGSGSGQDYSLTISSLEYEDMGIYYCLQYDEFPYTFGGGTKLEIK
B6: TPP-103 (Fab, V domains shown)
VH: QVQLVQSGAEVKKPGASVKVSCKASGYSFTDYIILWVRQAPGQGLEWMGHIDPYYGSSNYNLKFKGRVTMTRDTSTSTVYMELSSLRSEDTAVYYCARSKRDYFDYWGQGTLVTVSS
VL: DIQMTQSPSSLSASVGDRVTITCKASQDINSYLSWFQQKPGKAPKSLIYRANRLVDGVPSRFSGSGSGTDFTLTISSLQPEDFATYYCLQYDEFPYTFGQGTKLEIK
B7: TPP-115 (Fab, V domains shown)
VH: QVQLVQSGAEVKKPGASVKVSCKASGYSFTDYIILWVRQAPGQGLEWMGHIDPYYGSSNYNLKFKGRVTMTRDTSISTAYMELSRLRSDDTAVYYCARSKRDYFDYWGQGTLVTVSS
VL: DIQMTQSPSSLSASVGDRVTITCKASQDINSYLSWFQQKPGKAPKSLIYRANRLVDGVPSRFSGSGSGTDFTLTISSLQPEDFATYYCLQYDEFPYTFGQGTKLEIK
B8: TPP-111 (Fab, V domains shown)
VH: QVQLVQSGAEVKKPGASVKVSCKASGYSFTDYIILWVRQAPGQGLEWMGHIDPYYGSSNYNLKFKGRVTMTTDTSTSTAYMELRSLRSDDTAVYYCARSKRDYFDYWGQGTLVTVSS
VL: DIQMTQSPSSLSASVGDRVTITCKASQDINSYLSWFQQKPGKAPKSLIYRANRLVDGVPSRFSGSGSGTDFTLTISSLQPEDFATYYCLQYDEFPYTFGQGTKLEIK
B9: TPP-131 (Fab, V domains shown)
VH: QMQLVQSGAEVKKTGSSVKVSCKASGYSFTDYIILWVRQAPGQALEWMGHIDPYYGSSNYNLKFKGRVTITRDRSMSTAYMELSSLRSEDTAMYYCARSKRDYFDYWGQGTLVTVSS
VL: DIQMTQSPSSLSASVGDRVTITCKASQDINSYLSWFQQKPGKAPKSLIYRANRLVDGVPSRFSGSGSGTDFTLTISSLQPEDFATYYCLQYDEFPYTFGQGTKLEIK
B10: TPP-139 (Fab, V domains shown)
VH: QVQLVQSGSELKKPGASVKVSCKASGYSFTDYIILWVRQAPGQGLEWMGHIDPYYGSSNYNLKFKGRFVFSLDTSVSTAYLQISSLKAEDTAVYYCARSKRDYFDYWGQGTLVTVSS
VL: DIQMTQSPSSLSASVGDRVTITCKASQDINSYLSWFQQKPGKAPKSLIYRANRLVDGVPSRFSGSGSGTDFTLTISSLQPEDFATYYCLQYDEFPYTFGQGTKLEIK
B11: TPP-123 (Fab, V domains shown)
VH: QVQLVQSGAEVKKPGASVKVSCKASGYSFTDYIILWVRQATGQGLEWMGHIDPYYGSSNYNLKFKGRVTMTRNTSISTAYMELSSLRSEDTAVYYCARSKRDYFDYWGQGTLVTVSS
VL: DIQMTQSPSSLSASVGDRVTITCKASQDINSYLSWFQQKPGKAPKSLIYRANRLVDGVPSRFSGSGSGTDFTLTISSLQPEDFATYYCLQYDEFPYTFGQGTKLEIK
B12: TPP-107 (Fab, V domains shown)
VH: QVQLVQSGAEVKKPGSSVKVSCKASGYSFTDYIILWVRQAPGQGLEWMGHIDPYYGSSNYNLKFKGRVTITADESTSTAYMELSSLRSEDTAVYYCARSKRDYFDYWGQGTLVTVSS
VL: DIQMTQSPSSLSASVGDRVTITCKASQDINSYLSWFQQKPGKAPKSLIYRANRLVDGVPSRFSGSGSGTDFTLTISSLQPEDFATYYCLQYDEFPYTFGQGTKLEIK
B13: TPP-135 (Fab, V domains shown)
VH: QMQLVQSGPEVKKPGTSVKVSCKASGYSFTDYIILWVRQARGQRLEWIGHIDPYYGSSNYNLKFKGRVTITRDMSTSTAYMELSSLRSEDTAVYYCAASKRDYFDYWGQGTLVTVSS
VL: DIQMTQSPSSLSASVGDRVTITCKASQDINSYLSWFQQKPGKAPKSLIYRANRLVDGVPSRFSGSGSGTDFTLTISSLQPEDFATYYCLQYDEFPYTFGQGTKLEIK
B14: samalizumab (antibody, human IgG2, kappa, V domains shown)
VH: QVQLQQSGSELKKPGASVKISCKASGYSFTDYIILWVRQNPGKGLEWIGHIDPYYGSSNYNLKFKGRVTITADQSTTTAYMELSSLRSEDTAVYYCGRSKRDYFDYWGQGTTLTVSS
VL: DIQMTQSPSSLSASIGDRVTITCKASQDINSYLSWFQQKPGKAPKLLIYRANRLVDGVPSRFSGSGSGTDYTLTISSLQPEDFAVYYCLQYDEFPYTFGGGTKLEIKR
notes: Humanized anti-human CD200 mAb with G2/G4 constant region; also called ALXN6000; TPP-309

The target in one experiment is recombinant human CD200 Fc Chimera (human) (UniProt P41217). Description: SPR (Biacore), CD200 captured by anti-Fc (human) on CM5, Fab injected. A general note: SPR reads the build-up and loss of mass on a sensor chip optically.
Turning to B1, the Kd stood at 6.01 nM, the koff was found to be 0.0175 s⁻¹ and the kon worked out at 2.91e+06 M⁻¹ s⁻¹.
In the case of B2, the Kd turned out to be 0.132 nM, the fold better affinity than mouse parental c2aB7 (TPP-100 Fab) was determined as 3 fold, the fold better affinity than samalizumab (TPP-101 Fab) came out at 45 fold and the koff stood at 0.00024 s⁻¹. In addition, the kon worked out at 1.82e+06 M⁻¹ s⁻¹.
The like results for B3 were, in that order, 0.104 nM, 3 fold, 45 fold, 0.00022 s⁻¹ and 2.11e+06 M⁻¹ s⁻¹.
Regarding B4, the Kd was 0.407 nM, the koff was 0.000707 s⁻¹ and the kon is 1.74e+06 M⁻¹ s⁻¹.
Take B5: the Kd was 0.442 nM, the koff came to 0.000747 s⁻¹ and the kon turned out to be 1.69e+06 M⁻¹ s⁻¹.

A further experiment has the same target. As to the kind of experiment: SPR (Biacore 3000), CD200-Fc captured by anti-human Fc on CM5, Fab injected, 1:1 Langmuir.
Regarding B1, the Kd came to 5.53 nM, the dissociation rate constant (koff) stood at 0.0148 s⁻¹ and the kon came to 2.67e+06 M⁻¹ s⁻¹.
Taken in the same sequence, the figures for B6 were 10.1 nM, 0.00704 s⁻¹ and 694000 M⁻¹ s⁻¹.
In the case of B7, the Kd was found to be 4.04 nM, the dissociation rate constant (koff) was 0.0053 s⁻¹ and the kon is 1.31e+06 M⁻¹ s⁻¹.
The like results for B8 were, in that order, 5.08 nM, 0.00625 s⁻¹ and 1.23e+06 M⁻¹ s⁻¹.
The like results for B9 were, in that order, 0.887 nM, 0.00235 s⁻¹ and 2.65e+06 M⁻¹ s⁻¹.
The like results for B10 were, in that order, 3.71 nM, 0.00368 s⁻¹ and 993000 M⁻¹ s⁻¹.
Take B11: the Kd amounted to 4.36 nM, the off-rate (koff) is 0.00487 s⁻¹ and the kon worked out at 1.12e+06 M⁻¹ s⁻¹.
Taken in the same sequence, the figures for B12 were 4.64 nM, 0.0041 s⁻¹ and 885000 M⁻¹ s⁻¹.
With B13, the Kd is 15.7 nM, the koff is 0.0146 s⁻¹ and the kon turned out to be 930000 M⁻¹ s⁻¹.
The like results for B5 were, in that order, 0.488 nM, 0.000739 s⁻¹ and 1.51e+06 M⁻¹ s⁻¹.

The target of the next experiment is T1, cell surface CD200. As to the kind of experiment: flow cytometry, inhibition of labelled CD200R-Fc binding to CD200+ Raji cells; mean ± SD. The source says: Next, the abilities of the newly-engineered anti-CD200 antibodies to antagonize CD200R were compared with that of samalizumab using CD200+ Raji cells. […] Binding of labeled CD200R-Fc was detected by flow cytometry.
(In general: In flow cytometry, cells or beads pass a laser one at a time.)
The molecule B14 yielded an EC50 of 0.46 nM.

By Kd is commonly meant the constant that tells how readily two partners part at equilibrium. What is called koff is a measure of how fast the partners let go of each other. In general, kon refers to the second-order rate constant of association. In general, EC50 refers to the concentration at which the effect is half-maximal. Low values mean greater potency, high ones weaker potency.
